From patent publication US20090149389A1 (PURDUE RESEARCH FOUNDATION, published 2009)

How the values were obtained:
Assay in all cases: cell-based or functional assay
JNK1α1 (h) = JNK1α1 (h) (human (h), UniProt P45983-2 1-384)
Pim-1 (h) = Pim-1 (h) (human (h), UniProt P11309 1-313)
MSK1 (h) = MSK1 (h) (human (h), UniProt O75582 1-802)
IRAK4 (h) = biological target: T1, IRAK4 (h) (human (h), UniProt Q9NWZ3 1-460, limits assumed)
T1 sequence (looked up): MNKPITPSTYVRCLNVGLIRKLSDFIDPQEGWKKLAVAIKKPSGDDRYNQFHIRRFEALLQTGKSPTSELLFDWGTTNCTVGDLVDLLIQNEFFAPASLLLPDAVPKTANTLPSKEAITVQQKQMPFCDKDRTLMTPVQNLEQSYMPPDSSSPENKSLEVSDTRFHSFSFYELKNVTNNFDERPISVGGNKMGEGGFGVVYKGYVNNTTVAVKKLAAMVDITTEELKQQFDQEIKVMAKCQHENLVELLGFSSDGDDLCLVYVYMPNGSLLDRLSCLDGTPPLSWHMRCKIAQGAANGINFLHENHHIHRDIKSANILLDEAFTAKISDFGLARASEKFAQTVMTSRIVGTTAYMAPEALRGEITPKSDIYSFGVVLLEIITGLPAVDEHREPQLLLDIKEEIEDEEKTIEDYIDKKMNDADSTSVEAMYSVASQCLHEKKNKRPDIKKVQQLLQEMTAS

PhKγ2 (h) = biological target: T2, PhKγ2 (h) (human (h), UniProt P15735 1-406)
T2 sequence (looked up): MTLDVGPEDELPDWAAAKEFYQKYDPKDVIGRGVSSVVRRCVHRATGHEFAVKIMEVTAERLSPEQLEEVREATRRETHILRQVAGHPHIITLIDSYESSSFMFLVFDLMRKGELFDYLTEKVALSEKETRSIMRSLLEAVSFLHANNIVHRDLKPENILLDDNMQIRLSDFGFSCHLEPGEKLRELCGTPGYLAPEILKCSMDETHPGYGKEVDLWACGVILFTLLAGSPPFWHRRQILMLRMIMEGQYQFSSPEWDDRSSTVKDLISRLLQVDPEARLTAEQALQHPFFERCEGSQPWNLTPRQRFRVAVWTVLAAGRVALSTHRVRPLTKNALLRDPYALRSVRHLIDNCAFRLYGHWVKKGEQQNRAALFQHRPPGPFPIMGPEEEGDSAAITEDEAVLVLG

IGF-IR (h) = IGF-IR (h) (human (h), UniProt P08069 959-1367, limits assumed)
DYRK2 (h) = biological target: T3, DYRK2 (h) (human (h), UniProt Q92630 1-601, limits assumed)
T3 sequence (looked up): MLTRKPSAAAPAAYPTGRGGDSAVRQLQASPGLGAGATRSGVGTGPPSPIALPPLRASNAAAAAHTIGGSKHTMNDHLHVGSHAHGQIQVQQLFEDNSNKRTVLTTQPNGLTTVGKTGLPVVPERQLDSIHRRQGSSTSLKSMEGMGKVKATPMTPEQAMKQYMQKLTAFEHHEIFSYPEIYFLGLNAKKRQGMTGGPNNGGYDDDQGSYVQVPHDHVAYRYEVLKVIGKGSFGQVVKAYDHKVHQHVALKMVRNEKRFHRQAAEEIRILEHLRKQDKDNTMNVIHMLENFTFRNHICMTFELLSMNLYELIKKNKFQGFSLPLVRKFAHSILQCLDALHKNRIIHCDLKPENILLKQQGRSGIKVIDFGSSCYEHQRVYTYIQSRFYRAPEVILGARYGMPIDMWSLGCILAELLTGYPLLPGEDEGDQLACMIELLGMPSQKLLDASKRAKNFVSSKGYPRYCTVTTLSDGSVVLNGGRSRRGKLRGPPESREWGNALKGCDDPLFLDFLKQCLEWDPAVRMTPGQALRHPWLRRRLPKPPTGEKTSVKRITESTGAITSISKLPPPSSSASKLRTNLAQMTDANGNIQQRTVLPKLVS

BTK (h) = BTK (h) (human (h), UniProt Q06187 1-659)
ASK1 (h) = ASK1 (h) (human (h), UniProt Q99683 649-946, limits assumed)
Src(1-530) (h) = Src(1-530) (h) (human (h), UniProt P12931 1-530)
MKK6 (h) = biological target: T4, MKK6 (h) (human (h), UniProt P52564 1-334, limits assumed)
T4 sequence (looked up): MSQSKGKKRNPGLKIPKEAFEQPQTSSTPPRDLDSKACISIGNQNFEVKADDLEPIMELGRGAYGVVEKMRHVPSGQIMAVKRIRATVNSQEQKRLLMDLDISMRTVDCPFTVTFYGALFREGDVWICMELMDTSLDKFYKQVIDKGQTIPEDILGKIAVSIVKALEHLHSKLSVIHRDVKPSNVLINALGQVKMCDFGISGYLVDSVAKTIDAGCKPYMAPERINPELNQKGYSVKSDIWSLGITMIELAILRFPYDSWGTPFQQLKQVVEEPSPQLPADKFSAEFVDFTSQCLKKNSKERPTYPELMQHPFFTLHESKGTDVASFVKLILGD

Syk (h) = Syk (h) (human (h), UniProt P43405 1-635)
Flt3 (h) = biological target: T5, Flt3 (h) (human (h), UniProt P36888 564-993, limits assumed)
T5 sequence (looked up): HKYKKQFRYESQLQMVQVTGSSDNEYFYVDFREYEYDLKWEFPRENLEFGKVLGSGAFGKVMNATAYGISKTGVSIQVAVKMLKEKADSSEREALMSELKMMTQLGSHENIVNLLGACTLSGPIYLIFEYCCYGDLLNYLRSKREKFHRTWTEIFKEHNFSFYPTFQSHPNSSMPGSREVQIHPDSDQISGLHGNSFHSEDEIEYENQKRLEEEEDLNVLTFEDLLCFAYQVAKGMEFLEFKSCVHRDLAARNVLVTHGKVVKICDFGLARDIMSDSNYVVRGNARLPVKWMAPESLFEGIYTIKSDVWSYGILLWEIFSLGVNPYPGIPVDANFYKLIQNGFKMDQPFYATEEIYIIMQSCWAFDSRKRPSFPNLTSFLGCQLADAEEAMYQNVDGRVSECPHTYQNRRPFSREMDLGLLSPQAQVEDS

Chain of ASK1 (h) (Q99683 649-946 limits assumed): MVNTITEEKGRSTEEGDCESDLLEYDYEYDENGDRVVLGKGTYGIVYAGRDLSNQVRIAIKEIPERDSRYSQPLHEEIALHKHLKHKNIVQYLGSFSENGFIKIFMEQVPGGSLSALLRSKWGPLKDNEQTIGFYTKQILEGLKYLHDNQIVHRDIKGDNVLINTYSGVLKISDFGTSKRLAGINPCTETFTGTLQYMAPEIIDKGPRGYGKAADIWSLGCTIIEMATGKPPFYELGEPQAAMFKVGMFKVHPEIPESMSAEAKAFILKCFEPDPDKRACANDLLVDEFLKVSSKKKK
Chain of MSK1 (h) (O75582 whole entry): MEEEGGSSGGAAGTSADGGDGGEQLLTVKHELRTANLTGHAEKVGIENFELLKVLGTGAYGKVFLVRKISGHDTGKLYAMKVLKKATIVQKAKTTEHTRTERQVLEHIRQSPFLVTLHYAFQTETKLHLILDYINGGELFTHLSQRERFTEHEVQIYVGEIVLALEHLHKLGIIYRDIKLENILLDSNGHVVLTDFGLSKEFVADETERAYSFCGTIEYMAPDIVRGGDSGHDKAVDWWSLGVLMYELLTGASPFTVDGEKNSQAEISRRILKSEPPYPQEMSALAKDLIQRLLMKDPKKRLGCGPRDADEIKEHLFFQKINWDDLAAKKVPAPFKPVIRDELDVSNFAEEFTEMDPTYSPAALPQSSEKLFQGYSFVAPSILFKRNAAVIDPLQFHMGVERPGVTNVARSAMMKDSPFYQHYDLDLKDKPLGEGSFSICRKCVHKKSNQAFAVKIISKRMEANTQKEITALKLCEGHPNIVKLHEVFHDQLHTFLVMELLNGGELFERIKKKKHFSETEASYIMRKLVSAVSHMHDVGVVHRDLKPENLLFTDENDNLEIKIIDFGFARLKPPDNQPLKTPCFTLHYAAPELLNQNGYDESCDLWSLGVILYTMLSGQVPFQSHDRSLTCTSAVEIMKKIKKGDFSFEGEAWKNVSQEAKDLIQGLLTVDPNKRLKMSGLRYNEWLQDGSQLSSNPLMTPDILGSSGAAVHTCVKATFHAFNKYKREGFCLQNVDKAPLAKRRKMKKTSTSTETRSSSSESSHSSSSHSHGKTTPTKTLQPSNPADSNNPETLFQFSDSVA
Chain of IGF-IR (h) (P08069 959-1367 limits assumed): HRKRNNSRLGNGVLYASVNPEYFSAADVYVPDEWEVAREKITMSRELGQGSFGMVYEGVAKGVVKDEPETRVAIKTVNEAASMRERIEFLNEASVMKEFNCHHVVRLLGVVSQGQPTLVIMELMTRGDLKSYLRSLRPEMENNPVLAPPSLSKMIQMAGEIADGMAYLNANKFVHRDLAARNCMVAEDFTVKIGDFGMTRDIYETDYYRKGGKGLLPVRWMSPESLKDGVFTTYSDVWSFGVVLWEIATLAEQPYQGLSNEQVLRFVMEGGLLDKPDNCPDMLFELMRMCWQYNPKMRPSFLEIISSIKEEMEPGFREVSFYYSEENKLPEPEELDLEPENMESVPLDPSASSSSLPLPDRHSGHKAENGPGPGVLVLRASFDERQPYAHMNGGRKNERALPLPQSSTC
Chain of BTK (h) (Q06187 whole entry): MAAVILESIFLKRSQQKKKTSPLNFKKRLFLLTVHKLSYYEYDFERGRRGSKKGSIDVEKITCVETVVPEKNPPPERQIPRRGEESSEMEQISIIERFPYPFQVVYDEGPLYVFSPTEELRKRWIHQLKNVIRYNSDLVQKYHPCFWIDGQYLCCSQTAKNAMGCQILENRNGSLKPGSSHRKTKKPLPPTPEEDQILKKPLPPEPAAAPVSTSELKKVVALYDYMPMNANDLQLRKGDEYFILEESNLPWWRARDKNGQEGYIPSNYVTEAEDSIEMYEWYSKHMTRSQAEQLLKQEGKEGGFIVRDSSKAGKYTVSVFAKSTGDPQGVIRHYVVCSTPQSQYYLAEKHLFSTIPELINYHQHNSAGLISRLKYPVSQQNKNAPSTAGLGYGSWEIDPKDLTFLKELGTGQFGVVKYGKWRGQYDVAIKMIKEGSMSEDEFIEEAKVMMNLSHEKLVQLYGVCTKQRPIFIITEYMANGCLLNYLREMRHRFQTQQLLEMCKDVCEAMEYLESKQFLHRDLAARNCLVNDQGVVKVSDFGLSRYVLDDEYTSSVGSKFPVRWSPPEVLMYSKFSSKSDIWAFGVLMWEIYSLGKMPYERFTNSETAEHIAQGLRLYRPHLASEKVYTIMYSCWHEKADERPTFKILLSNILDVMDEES
Chain of Pim-1 (h) (P11309 whole entry): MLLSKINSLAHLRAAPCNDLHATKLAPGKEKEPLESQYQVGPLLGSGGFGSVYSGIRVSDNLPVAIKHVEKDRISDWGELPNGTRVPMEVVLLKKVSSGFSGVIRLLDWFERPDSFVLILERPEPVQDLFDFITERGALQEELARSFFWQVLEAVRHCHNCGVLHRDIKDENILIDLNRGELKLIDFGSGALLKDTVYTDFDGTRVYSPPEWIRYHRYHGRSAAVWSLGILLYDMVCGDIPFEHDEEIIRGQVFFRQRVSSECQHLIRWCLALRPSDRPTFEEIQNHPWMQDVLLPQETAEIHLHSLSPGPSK
Chain of JNK1α1 (h) (P45983 other isoform, or with tags, fused parts or gaps limits assumed): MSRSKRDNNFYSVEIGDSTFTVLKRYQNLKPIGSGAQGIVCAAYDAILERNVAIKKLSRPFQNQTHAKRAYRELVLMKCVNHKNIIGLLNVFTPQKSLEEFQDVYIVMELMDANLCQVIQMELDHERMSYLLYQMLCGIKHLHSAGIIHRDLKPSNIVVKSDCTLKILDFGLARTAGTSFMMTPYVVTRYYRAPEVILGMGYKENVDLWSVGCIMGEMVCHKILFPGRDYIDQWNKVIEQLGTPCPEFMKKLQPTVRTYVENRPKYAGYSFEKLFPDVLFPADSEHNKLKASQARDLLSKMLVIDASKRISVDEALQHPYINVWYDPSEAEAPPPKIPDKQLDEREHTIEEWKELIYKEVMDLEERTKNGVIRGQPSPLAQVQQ

Binder: KAFAKLAARLYRKALARQLGVAA
- Profile-1 @ = 100 µm (kinase profiler assay) (JNK1α1 (h)): 92
- Profile-1 @ = 100 µm (kinase profiler assay) (Pim-1 (h)): 1
- Profile-1 @ = 100 µm (kinase profiler assay) (MSK1 (h)): 13
- Profile-1 @ = 100 µm (kinase profiler assay) (IRAK4 (h)): 16
- Profile-1 @ = 100 µm (kinase profiler assay) (PhKγ2 (h)): 27
- Profile-1 @ = 100 µm (kinase profiler assay) (IGF-IR (h)): 76
- Profile-1 @ = 100 µm (kinase profiler assay) (DYRK2 (h)): -10
- Profile-1 @ = 100 µm (kinase profiler assay) (BTK (h)): 16
- Profile-1 @ = 100 µm (kinase profiler assay) (ASK1 (h)): 48
- Profile-1 @ = 100 µm (kinase profiler assay) (Src(1-530) (h)): 3
- Profile-1 @ = 100 µm (kinase profiler assay) (MKK6 (h)): 48
- Profile-1 @ = 100 µm (kinase profiler assay) (Syk (h)): 4
- Profile-1 @ = 100 µm (kinase profiler assay) (Flt3 (h)): 20
